# Measured values: US20120148499A1
# Primed or numbered codes have the meaning given here. 5,6FAM″ = fluorescein-5(6)-carbonyl on the lysine (K(5,6FAM))
# Target: purified myelin basic protein (MBP)
# Test: peptide binding to MBP-crosslinked beads against control beads without MBP
binder,measurement,value
"Ac-SHSTYTDWLNFWAWPGK(5,6FAM″)-NH2 [acetyl-…(5,6FAM)-amide]",fold increase in binding to MBP crosslinked beads over control beads (no MBP),10 fold
